Assay results taken from PMC3135480 (Molecular Biology of the Cell, 2011).

Target: T1, HA-tagged PXL-1 full-length (residues 1-413) (C. elegans, UniProt Q09476 1-413)
T1 sequence (looked up): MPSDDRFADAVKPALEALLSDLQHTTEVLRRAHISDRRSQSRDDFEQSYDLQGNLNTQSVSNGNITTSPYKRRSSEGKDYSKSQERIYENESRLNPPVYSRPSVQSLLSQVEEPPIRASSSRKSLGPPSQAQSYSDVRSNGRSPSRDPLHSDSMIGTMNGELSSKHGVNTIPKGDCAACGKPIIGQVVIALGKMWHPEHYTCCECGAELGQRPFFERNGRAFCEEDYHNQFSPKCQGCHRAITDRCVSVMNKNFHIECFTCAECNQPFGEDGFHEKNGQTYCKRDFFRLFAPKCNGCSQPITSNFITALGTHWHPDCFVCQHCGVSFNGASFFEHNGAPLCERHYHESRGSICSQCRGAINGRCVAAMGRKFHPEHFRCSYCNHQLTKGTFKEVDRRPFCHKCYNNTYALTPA
Experiment: pull-down

B1: MBP fusion of UNC-95 full-length (natural protein, C. elegans, UniProt Q9NEZ5 1-350, looked up)
chain: MTISPQPSHQQFESYQWTTESRSSQQRHGTGTPSQDGRLSAIPDPVERHVARWRSESRNSNKDKVFRNDEEFSQQDEIVNGTLTALKNDVEQTTEIIRRKQEQMRMERRQFQTEMEVNGRISIDPTDDWLAARLKAVSSDDMNQQLVKLKQDQRQNAVTDTLAALVYDVNATTEVLRRGQRGRDGEDGNKKKKEEIEYTLRLTPAPEEQIPQRPKIPEDDNMETDDYSRQYGVQMSEETDSLRRRRARSTTPRRTLHISGSPPPPAAAVCAYCSEEIDGAILTALAPNSERAQKFHTYHFMCTYCQKALNMHGTYREHDLKPYCHDCFYKLYNGLQYAPDDHQASIEKLI
binding result: binds
